Results taken from patent US20020034537A1, “Cationic diagnostic, imaging and therapeutic agents associated with activated vascular sites” (priority 2000, published 2002).
Like-named read-outs stand apart in the source and are kept apart here.

Experiments:
[1] = normal tissues, Adamson et al. (1988); cited from earlier work
[2] = Time constant of plasma clearance; assay type: in vivo, SCID mice; conditions: i.v. bolus, arterial blood within 30 min
[3] = Data from Yuan et al. (1995); cited from earlier work
[4] = Data from Yuan et al. (1995); cited from earlier work; remark: listed apart in the source
[5] = Isoelectric focusing of charge-modified proteins; assay type: physicochemical
Protocol: Isoelectric points of the proteins were determined by isoelectric focusing using polyacrylamide gel slabs on a vertical electrofocusing apparatus. pl was quantified by comparison with protein standards (Bio-Rad) after Coomassie Blue staining of the gels. The molecular weights of the proteins were analyzed by SDS-PAGE (Mini-Protean II; Bio-Rad) with and without reducing agent P-mercaptoethanol in the sample buffer.

(x-lactalbumin: protein, MW=14,176; net charge −10 (Adamson et al. 1988)
microvascular permeability relative to ribonuclease [1]: approximately 50%

Anionized BSA: rhodamine-labeled bovine serum albumin anionized by succinylation
Median K, time constant of concentration decay in the plasma [2]: 40.8 100s

Native BSA: fluorescently labeled native bovine serum albumin, data from Yuan et al. (1995)
pI (range) [3]: 4.5
Median K, time constant of concentration decay in the plasma [4]: 80.5 100s

Cationized BSA: rhodamine-labeled bovine serum albumin cationized by conjugation with hexamethylenediamine
pI (range) [5]: 8.6-9.1
Median K, time constant of concentration decay in the plasma [2]: 12.7 100s
